According to US8507443B2, “Anticancer agent” (The Research Foundation for Microbial Diseases of Osaka …, priority 2005, dated 2013):

Columns and labels:
[1] = target: HB-EGF (Homo sapiens, UniProt Q99075); test: Inhibition of binding of 125I-labeled diphtheria toxin to HB-EGF
[2] = test system: Vero cells

Sequence of HB-EGF (Q99075 63-148): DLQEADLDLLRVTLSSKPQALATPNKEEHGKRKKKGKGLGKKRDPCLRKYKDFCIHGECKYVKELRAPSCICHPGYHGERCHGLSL

## GST-DT
[1]
  activity to inhibit the binding of HB-EGF to EGFR: inhibit the binding of HB-EGF to EGFR
  inhibition of the binding of 125I-labeled diphtheria toxin to HB-EGF: in a dose dependent manner
[2]
  toxicity of diphtheria toxin: do not have the toxicity of diphtheria toxin substantially
